Source: PMC5357909, “Structural and functional studies of a noncanonical Dicer from Entamoeba histolytica” (Scientific Reports, 2017)

Experiments:
[1] = biological target: the molecule itself; assay: crystal structure; EhRNaseIII229, sitting drop, 16 °C, 1.6 M (NH4)2SO4, 0.02 M MgCl2, 0.05 M Tris-HCl pH 7.5; apo (1.90 Å) and soaked with 10 mM MnCl2 (2.05 Å); P212121, molecular replacement
[2] = biological target: the molecule itself; assay: crystal structure; SeMet-EhRNaseIII194, hanging drop, 16 °C, 1.26 M (NH4)2SO4, 0.1 M Hepes pH 7.8; P212121, SAD phasing, 2.10 Å
EhRNaseIII194 [3] = biological target: T1, EhRNaseIII194 (Entamoeba histolytica, UniProt C4LU64 2-194); assay: EMSA; 5 mM Mg2+; shift at 5e-5 M; EMSA (1x): 30 mM Tris-HCl pH 7.5, 30 mM NaCl, 5 mM MgCl2, 1 mM DTT, 0.1 mM EDTA, 5% glycerol; room temperature 10 min then ice 20 min; 6% native PAGE, 0.5x TBE; details: protein: recombinant; tags: His-Sumo removed by Ulp1; chain copies: 2; blunt, 100 bp
T1 sequence: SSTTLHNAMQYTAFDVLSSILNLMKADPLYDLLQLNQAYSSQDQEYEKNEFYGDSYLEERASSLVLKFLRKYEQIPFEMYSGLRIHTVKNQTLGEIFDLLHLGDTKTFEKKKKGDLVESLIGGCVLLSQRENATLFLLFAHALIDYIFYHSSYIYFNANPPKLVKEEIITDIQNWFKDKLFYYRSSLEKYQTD

[4] = biological target: T2, EhRNaseIII256 (full-length EhRNaseIII) (Entamoeba histolytica, UniProt C4LU64 2-256); assay: EMSA; 5 mM Mg2+; EMSA (1x): 30 mM Tris-HCl pH 7.5, 30 mM NaCl, 5 mM MgCl2, 1 mM DTT, 0.1 mM EDTA, 5% glycerol; room temperature 10 min then ice 20 min; 6% native PAGE, 0.5x TBE; details: protein: recombinant, tags: His-Sumo removed by Ulp1, chain copies: 2, blunt
T2 sequence: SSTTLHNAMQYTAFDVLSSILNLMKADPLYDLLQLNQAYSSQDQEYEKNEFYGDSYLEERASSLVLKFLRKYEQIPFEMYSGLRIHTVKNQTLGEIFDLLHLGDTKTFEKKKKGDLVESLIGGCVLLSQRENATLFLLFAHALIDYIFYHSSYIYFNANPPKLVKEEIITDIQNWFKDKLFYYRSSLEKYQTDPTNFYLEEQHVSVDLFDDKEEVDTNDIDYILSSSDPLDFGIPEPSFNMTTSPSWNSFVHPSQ

EhRNaseIII229 [5] = biological target: T3, EhRNaseIII229 (Entamoeba histolytica, UniProt C4LU64 2-229); assay: EMSA; 5 mM Mg2+; almost complete shift at 3e-4 M; EMSA (1x): 30 mM Tris-HCl pH 7.5, 30 mM NaCl, 5 mM MgCl2, 1 mM DTT, 0.1 mM EDTA, 5% glycerol; room temperature 10 min then ice 20 min; 6% native PAGE, 0.5x TBE; details: protein: recombinant; tags: His-Sumo removed by Ulp1; chain copies: 2; blunt, 100 bp
T3 sequence: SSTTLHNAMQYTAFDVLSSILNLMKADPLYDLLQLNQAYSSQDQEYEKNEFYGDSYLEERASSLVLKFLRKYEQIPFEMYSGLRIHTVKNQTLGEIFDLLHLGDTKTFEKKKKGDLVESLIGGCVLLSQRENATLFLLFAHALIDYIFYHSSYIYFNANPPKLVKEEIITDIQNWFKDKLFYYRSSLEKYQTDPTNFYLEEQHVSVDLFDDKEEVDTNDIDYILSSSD

EhRNaseIII229 [6] = biological target: T3, EhRNaseIII229; assay: EMSA; 5 mM Mg2+; EMSA (1x): 30 mM Tris-HCl pH 7.5, 30 mM NaCl, 5 mM MgCl2, 1 mM DTT, 0.1 mM EDTA, 5% glycerol; room temperature 10 min then ice 20 min; 6% native PAGE, 0.5x TBE; details: protein: recombinant; tags: His-Sumo removed by Ulp1; chain copies: 2; blunt, 25 bp
EhRNaseIII194 [7] = biological target: T1, EhRNaseIII194; assay: EMSA; 5 mM Mg2+; up to 1e-3 M; EMSA (1x): 30 mM Tris-HCl pH 7.5, 30 mM NaCl, 5 mM MgCl2, 1 mM DTT, 0.1 mM EDTA, 5% glycerol; room temperature 10 min then ice 20 min; 6% native PAGE, 0.5x TBE; details: protein: recombinant; tags: His-Sumo removed by Ulp1; chain copies: 2; blunt, 25 bp
EhRNaseIII194 [8] = biological target: T1, EhRNaseIII194; assay: EMSA; 5 mM Mg2+; binds at 1e-4 M; EMSA (1x): 30 mM Tris-HCl pH 7.5, 30 mM NaCl, 5 mM MgCl2, 1 mM DTT, 0.1 mM EDTA, 5% glycerol; room temperature 10 min then ice 20 min; 6% native PAGE, 0.5x TBE; details: protein: recombinant; tags: His-Sumo removed by Ulp1; chain copies: 2; blunt, 70 bp
[9] = biological target: T2, EhRNaseIII256 (full-length EhRNaseIII); assay: EMSA; 5 mM Mg2+; up to 1e-3 M; EMSA (1x): 30 mM Tris-HCl pH 7.5, 30 mM NaCl, 5 mM MgCl2, 1 mM DTT, 0.1 mM EDTA, 5% glycerol; room temperature 10 min then ice 20 min; 6% native PAGE, 0.5x TBE; details: protein: recombinant, tags: His-Sumo removed by Ulp1, chain copies: 2, blunt
EhRNaseIII229 [10] = biological target: T3, EhRNaseIII229; assay: as above; details: protein: recombinant, tags: His-Sumo removed by Ulp1, chain copies: 2, blunt

B1: EhRNaseIII229 (EhRNaseIII aa 1-229) (domain or fragment, Entamoeba histolytica, UniProt C4LU64 1-229, looked up)
chain: MSSTTLHNAMQYTAFDVLSSILNLMKADPLYDLLQLNQAYSSQDQEYEKNEFYGDSYLEERASSLVLKFLRKYEQIPFEMYSGLRIHTVKNQTLGEIFDLLHLGDTKTFEKKKKGDLVESLIGGCVLLSQRENATLFLLFAHALIDYIFYHSSYIYFNANPPKLVKEEIITDIQNWFKDKLFYYRSSLEKYQTDPTNFYLEEQHVSVDLFDDKEEVDTNDIDYILSSSD
notes: EhRNaseIII, the only RNaseIII protein of Entamoeba histolytica (256 aa), aa 1-229 (CTR truncated); Cloned from E. histolytica cDNA into pET28-Sumo; Residues after about 195 were disordered in the crystal; also called EhRNase229; source: E. coli BL21(DE3), purified (HisTrap, Ulp1 digestion, HisTrap, HiTrap Q, Superdex 75); not shown: His-Sumo, N-terminal, cleaved
stoichiometry N [1]: 2

B2: SeMet-EhRNaseIII194 (selenomethionine-labeled EhRNaseIII, aa 1-194) (domain or fragment, Entamoeba histolytica, UniProt C4LU64 1-194, looked up)
chain: MSSTTLHNAMQYTAFDVLSSILNLMKADPLYDLLQLNQAYSSQDQEYEKNEFYGDSYLEERASSLVLKFLRKYEQIPFEMYSGLRIHTVKNQTLGEIFDLLHLGDTKTFEKKKKGDLVESLIGGCVLLSQRENATLFLLFAHALIDYIFYHSSYIYFNANPPKLVKEEIITDIQNWFKDKLFYYRSSLEKYQTD
modifications: selenomethionine substituted (Se-Met) for methionine
notes: EhRNaseIII, the only RNaseIII protein of Entamoeba histolytica (256 aa), aa 1-194 (CTR truncated); Cloned from E. histolytica cDNA into pET28-Sumo; also called EhRNase194; SeMet-RNaseIII194; source: E. coli BL21(DE3) in M9 medium with Se-Met, purified (HisTrap, Ulp1 digestion, HisTrap, HiTrap Q, Superdex 75); not shown: His-Sumo, N-terminal, cleaved
stoichiometry N [2]: 2

B3: RNA100 (dsRNA)
RNA 1: GGGAGAAACGCGGCCUCUUCUUAUUUAUGGCGACAUGUUGUGCCACAUAUUGAGCCAGUAGCGCGGUGUAUUAUACCAGACCUUAUUGGUAUGGUCUCCC
RNA 2: GGGAGACCAUACCAAUAAGGUCUGGUAUAAUACACCGCGCUACUGGCUCAAUAUGUGGCACAACAUGUCGCCAUAAAUAAGAAGAGGCCGCGUUUCUCCC
binding signal (EhRNaseIII194 [3]): ~6 fold affinity vs EhRNaseIII256 (2-fold vs EhRNaseIII229)
Kd ([4]; 100 bp): ~600 µM
binding signal (EhRNaseIII229 [5]): > 2 fold affinity vs EhRNaseIII256 (at least)

B4: RNA25 (dsRNA)
RNA 1: GGGAGAAACGCGGCCUCUUUCUCCC
RNA 2: GGGAGAAAGAGGCCGCGUUUCUCCC
binding result ([4]; 25 bp): no binding
binding result (EhRNaseIII229 [6]): no binding
binding result (EhRNaseIII194 [7]): no binding

B5: RNA70 (dsRNA)
RNA 1: GGGAGAAACGCGGCCUCUUCUUAUUUAUGGCGACAUGUUGUGCCACAUAUUGAGCCAGUAGCGCUCUCCC
RNA 2: GGGAGAGCGCUACUGGCUCAAUAUGUGGCACAACAUGUCGCCAUAAAUAAGAAGAGGCCGCGUUUCUCCC
binding result (EhRNaseIII194 [8]): binds
binding result ([9]; 70 bp): no binding
binding result (EhRNaseIII229 [10]; 70 bp): no binding

B6: RNA50 (dsRNA)
RNA 1: GGGAGAAACGCGGCCUCUUCUUAUUUAUGGCGACAUGUUGUGCCUCUCCC
RNA 2: GGGAGAGGCACAACAUGUCGCCAUAAAUAAGAAGAGGCCGCGUUUCUCCC
binding result ([9]; 50 bp): no binding
binding result (EhRNaseIII229 [10]; 50 bp): no binding
